Source: patent publication US20130034559A1 (AstraZeneca / MedImmune, published 2013)

What was measured:
[1] = molecular target: T1, recombinant monomeric human B7-H1 FlagHis10 extracellular domain (human, UniProt Q9NZQ7 19-238); test: SPR (BIAcore T100), IgG captured via protein G, monomeric B7-H1 ECD as analyte, 25 °C, 1:1 model
T1 construct: extracellular domain; also called HIS FLAG tagged human B7-H1; HIS FLAG tagged B7-H1; not shown: FlagHis10 tag
Experimental: (§1) The binding affinity and kinetic parameters of anti-B7-H1 antibodies in the IgG1-TM format to monomeric human and cynomologus B7-H1 were determined by surface plasmon resonance using a BIAcore T100 instrument (BIAcore, Uppsala, Sweden). In brief, experiments were performed at 25° C. using HBS-EP buffer (10 mM HEPES, 150 mM NaCl, 3 mM EDTA, 0.05% v/v surfactant P20) as running buffer. IgGs were affinity captured on the surface of a CM5 sensor chip (BIAcore) via protein G, which was amine coupled onto the CM5 surface to achieve the density of ˜500 Response Units (RU), according to the manufacturer's instructions (BIAapplications Handbook, BIAcore). Recombinant monomeric human or cynomologus B7-H1 FlagHis₁₀ extracellular domains (ECDs) were used as analytes. […] All measurements were baseline corrected by subtracting the sensorgram obtained with the control (activated-deactivated) flow cell, as well as double referenced with blank (zero analyte concentration) injections. Data were analyzed using the T-100 BIAevaluation software package and fitted to a simple 1:1 Langmuir binding model with local Rₘₐₓ and bulk refractive index set to 0. Data were calculated from at least two independent experiments. Mass transport effects were limited by keeping the level of affinity-captured IgGs below 250 RU.

B7H1_D122N = molecular target: T2, B7H1_D122N (human, UniProt Q9NZQ7 19-238); test: HTRF competition: untagged B7-H1 sample against HIS FLAG tagged human B7-H1 for labelled antibody
T2 construct: range 19-238; also called human B7-H1 extracellular domain mutant D122N
Experimental: The HTRF® competition assays measured the binding of anti-B7-H1 antibody to HIS FLAG tagged B7-H1. Titration of non tagged B7-H1 samples, prepared as described above, will compete with HIS FLAG tagged B7-H1 for binding to anti-B7-H1 antibody, leading to a reduction in assay signal. […] 10 μl of B7-H1 sample was added to a 384 well low volume assay plate (Corning 3673). […] Assay plates were incubated for 4 hours at room temperature prior to reading time resolved fluorescence at 620 nm and 665 nm emission wavelengths using an EnVision plate reader (Perkin Elmer).

[2] = molecular target: T3, recombinant monomeric cynomologus B7-H1 FlagHis10 extracellular domain (cynomologus); test: SPR (BIAcore T100), IgG captured via protein G, monomeric cynomologus B7-H1 ECD as analyte, 25 °C, 1:1 model
T3 construct: extracellular domain; also called CYNO B7H1
Experimental: as §1

T1 sequence (Q9NZQ7 19-238): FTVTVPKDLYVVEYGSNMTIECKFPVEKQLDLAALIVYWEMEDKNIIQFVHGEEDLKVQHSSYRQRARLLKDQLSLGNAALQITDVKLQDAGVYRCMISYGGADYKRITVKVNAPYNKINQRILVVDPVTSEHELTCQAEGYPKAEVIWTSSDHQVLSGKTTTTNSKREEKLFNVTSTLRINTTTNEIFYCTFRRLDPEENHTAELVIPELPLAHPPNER
T2 sequence (Q9NZQ7 19-238 D122N limits assumed): as the sequence (Q9NZQ7 19-238) above, with D104N counted along it

B1: 2.7A4OPT (antibody, V domains shown)
VH: EVQLVESGGGLVKPGGSLRLSCAASGFTFSTYSMNWVRQAPGKGLEWVSSISSSGDYIYYADSVKGRFTISRDNAKNSLYLQMNSLRAEDTAVYYCARDLVTSMVAFDYWGQGTLVTVSS
VL: SYELTQPPSVSVSPGQTARITCSGDALPQKYVFWYQQKSGQAPVLVIYEDSKRPSGIPERFSGSSSGTMATLTISGAQVEDEADYYCYSTDRSGNHRVFGGGTKLTVL
notes: Germlined variable domains; human IgG1-TM (L234F, L235E, P331S), lambda; also called 2.7A4OPT IgG1-TM
[1]
  Kd: 1 nM
  koff: 0.0012 s⁻¹
  kon: 1.24e+06 M⁻¹ s⁻¹
B7H1_D122N
  binding result: no binding
[2]
  Kd: 0.835 nM
  koff: 0.0011 s⁻¹
  kon: 1.31e+06 M⁻¹ s⁻¹
